These are literature values, as cited in article PMC4070439.

For data set [1], the target named is IL-12Rβ1 (low affinity site) (Mus musculus) (UniProt Q60837).
In data set [2] the target is IL-12Rβ1 (high affinity site) (Mus musculus) (UniProt Q60837).

Take “IL-12 p40 homodimer (from UniProt P43432)”: the values for the Kd in data set [1] and in data set [2] were 15 nM and 0.005 nM, respectively.
